The values below come from article doi:10.1101/2023.02.03.526715 (bioRxiv, 2023).

For this assay, the target named is recombinant human cardiac troponin I tagged with GST (human, UniProt P19429 1-210). Description: ELISA. Background: An ELISA detects its analyte on a solid surface through an enzyme-linked reagent.
Sequence of recombinant human cardiac troponin I tagged with GST (P19429 whole entry): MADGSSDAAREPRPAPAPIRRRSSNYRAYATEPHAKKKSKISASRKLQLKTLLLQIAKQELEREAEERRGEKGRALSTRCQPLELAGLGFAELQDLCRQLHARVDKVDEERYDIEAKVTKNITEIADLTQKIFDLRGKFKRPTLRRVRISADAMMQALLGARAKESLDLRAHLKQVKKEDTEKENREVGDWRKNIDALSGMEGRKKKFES

B1: P888, ten amino acid peptide corresponding to ATP synthase subunit d residues 2-11 (peptide)
peptide: AGRKLALKTI
On to B1, for which the binding result was “binds”.
